B1: PMEL_(209(2M)–217) epitope (…) (peptide)
peptide: IMDQVPFSV

Target: HLA-A*02:01
Test: differential scanning fluorimetry

Molecule | Tm of the peptide/HLA-A*02:01 complex [°C]
F7A-modified PMEL_(209(2M)–217) epitope (peptide) | 61.7
B1 | 61.9
